The numbers were not newly measured in PMC8526019, which cites them from elsewhere.

The target of one series is ATG3 (Homo sapiens) (UniProt Q9NT62).
In series [1] the target is Atg7 (Saccharomyces cerevisiae) (UniProt P38862).
A further series deals with ATG14 (Homo sapiens) (UniProt Q6ZNE5).
Series [2] has as its target E-cadherin (Homo sapiens) (UniProt P12830).

UniProt Q6ZNE5, sequence (Q6ZNE5 whole entry): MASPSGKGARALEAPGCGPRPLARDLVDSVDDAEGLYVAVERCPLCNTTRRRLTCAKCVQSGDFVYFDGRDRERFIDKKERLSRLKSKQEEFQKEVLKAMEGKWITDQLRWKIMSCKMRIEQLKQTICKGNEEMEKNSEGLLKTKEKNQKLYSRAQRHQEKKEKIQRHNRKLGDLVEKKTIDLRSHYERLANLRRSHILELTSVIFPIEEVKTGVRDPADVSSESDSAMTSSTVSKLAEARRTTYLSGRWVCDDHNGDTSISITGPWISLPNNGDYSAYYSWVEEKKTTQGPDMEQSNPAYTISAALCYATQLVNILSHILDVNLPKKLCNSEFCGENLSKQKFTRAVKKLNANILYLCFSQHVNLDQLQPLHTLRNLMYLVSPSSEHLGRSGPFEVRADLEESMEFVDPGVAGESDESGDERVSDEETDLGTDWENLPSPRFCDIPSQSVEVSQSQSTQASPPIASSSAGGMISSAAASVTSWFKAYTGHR
UniProt Q9NT62, sequence (Q9NT62 whole entry): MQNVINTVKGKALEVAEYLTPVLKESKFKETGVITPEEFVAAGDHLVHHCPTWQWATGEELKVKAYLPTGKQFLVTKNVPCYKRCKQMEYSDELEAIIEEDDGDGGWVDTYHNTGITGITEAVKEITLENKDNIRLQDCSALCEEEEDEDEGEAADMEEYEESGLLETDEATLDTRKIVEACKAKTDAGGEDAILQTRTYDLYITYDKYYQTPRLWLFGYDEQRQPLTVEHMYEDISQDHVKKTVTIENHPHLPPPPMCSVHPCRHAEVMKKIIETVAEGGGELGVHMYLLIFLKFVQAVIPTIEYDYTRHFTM

Regarding ATG12 (from UniProt O94817), the Kd with ATG3 (Homo sapiens) is 50 nM.
Consider Atg7 (from UniProt P38862), for which the Kd in series [1] is 1 nM.
On to BECN1 (from UniProt Q14457), for which, in the series with ATG14 (Homo sapiens), the dissociation constant (Kd) was 3.2 µM.
Take E-cadherin (from UniProt P12830): the Kd in series [2] was 160 µM.

As usually defined, the Kd is the equilibrium constant for the complex coming apart.
